Test results published in patent US20170247465A1, “COMBINATION THERAPY FOR TREATMENT OF CANCER” (OncoMed Pharmaceuticals, Inc., priority 2014, published 2017).

Assays:
[1] = tested on: UM-PE13 breast tumor cells; assay: UM-PE13 breast tumor xenograft, staggered dosing of OMP-18R5 and paclitaxel (Example 2); format: in vivo, NOD/SCID mice
Procedure: FIG. 2. Inhibition of breast tumor growth in vivo by a Wnt pathway inhibitor in combination with a taxane using a staggered dosing schedule. UM-PE13 breast tumor cells were injected subcutaneously into NOD/SCID mice. […] OMP-18R5 was administered at 25 mg/kg and paclitaxel at 20 mg/kg. Agents were administered every three weeks and administered intraperitoneally. Data is shown as tumor volume (mm^3) over days post treatment.
Single cell suspensions of xenograft UM-PE13 breast tumor cells (20,000 cells) were injected subcutaneously into 6-8 week old NOD/SCID mice. UM-PE13 is a triple negative breast cancer. Tumors were allowed to grow 34 days until they reached an average volume of 80 mm^3. The mice were randomized (n=8 per group) and treated with paclitaxel, a combination of OMP-18R5 and paclitaxel administered on the same day, a combination of OMP-18R5 and paclitaxel where the paclitaxel was administered 3 days prior to OMP-18R5, a combination of OMP-18R5 and paclitaxel where OMP-18R5 was administered 3 days prior to the paclitaxel, or a control antibody. Mice were treated once every three weeks with OMP-18R5 at a dose of 25 mg/kg and paclitaxel at a dose of 20 mg/kg. OMP-18R5 and paclitaxel were administered intraperitoneally. Tumor growth was monitored and tumor volumes were measured with electronic calipers at the indicated time points. Data are expressed as mean±S.E.M.

[2] = Phase 1b study of vantictumab in combination with docetaxel in NSCLC patients / Phase 1 program; format: in vivo; settings: Cohorts 1 and 2: vantictumab 5 and 10 mg/kg Day 1 of 21-day cycle with docetaxel 75 mg/m^2
Excerpt: The study is an open-label Phase 1b dose-escalation study of vantictumab in combination with docetaxel in patients with previously treated recurrent or advanced non-small cell lung cancer (NSCLC). The primary objectives of the study are to determine the safety and the maximum tolerated dose of vantictumab in combination with docetaxel. To identify a recommended Phase 2 dose for vantictumab in combination with docetaxel. The secondary objectives are to characterize the pharmacokinetics (PK) of vantictumab when administered in combination with docetaxel, to characterize the immunogenicity of vantictumab, and to make preliminary assessment of vantictumab efficacy when administered in combination with docetaxel.
Vantictumab is administered on Day 1 of each 21-day cycle. The dose levels of vantictumab for Cohorts 1 and 2 were 5 mg/kg and 10 mg/kg, respectively. For Cohorts 1 and 2, docetaxel (75 mg/m^2) is administered IV on Day 1 of each cycle. […] Patients of Cohorts 3 and 4 will be administered vantictumab at 2 mg/kg and 4 mg/kg once every 3 weeks, respectively. No dose escalation of vantictumab will be allowed within a dose cohort. A staggered dosing regimen will be evaluated in Cohorts 3 and 4. Docetaxel (75 mg/m^2) will be administered IV on Day 3 of each cycle.

[3] = tested on: OMP-C28 colon tumor cells; assay: OMP-C28 colon tumor xenograft, staggered dosing of Wnt inhibitors and nab-paclitaxel (Example 10); format: in vivo, NOD/SCID mice; settings: Wnt pathway inhibitor 25 mg/kg every two weeks, administered 2 days prior to nab-paclitaxel 15 mg/kg once a week, i.p.; versus single agents; FIG. 8
Procedure: FIG. 8A-8B. Inhibition of colon tumor growth in vivo by a Wnt pathway inhibitor in combination with a taxane using a staggered dosing schedule. FIG. 8A. OMP-C28 colon tumor cells were injected subcutaneously into NOD/SCID mice. Mice were treated with control antibody (-•-), OMP-18R5 (-▴-), nab-paclitaxel (-▪-), or a combination of OMP-18R5 and nab-paclitaxel, where OMP-18R5 was administered 2 days prior to administration of nab-paclitaxel (-⋄-). FIG. 8B. OMP-C28 colon tumor cells were injected subcutaneously into NOD/SCID mice. Mice were treated with control antibody (-•-), OMP-54F28 (-▴-), nab-paclitaxel (-▪-), or a combination of OMP-54F28 and nab-paclitaxel, where OMP-54F28 was administered 2 days prior to administration of nab-paclitaxel (-⋄-). OMP-18R5, OMP-54F28 and control were administered at 25 mg/kg and nab-paclitaxel was administered at 15 mg/kg. OMP-18R5, OMP-54F28 and control were administered once every two weeks, paclitaxel was administered once a week, and all agents were administered intraperitoneally. Data is shown as tumor volume (mm^3) over days post treatment.
Single cell suspensions of xenograft OMP-C28 colon tumor cells were injected subcutaneously into 6-8 week old NOD/SCID mice. […] Tumor growth was monitored and tumor volumes were measured with electronic calipers at the indicated time points. Data are expressed as mean±S.E.M.

B1: OMP-18R5: anti-FZD antibody, IgG2, also known as vantictumab; heavy chain SEQ ID NO:3, light chain SEQ ID NO:4 (antibody)
heavy: EVQLVESGGGLVQPGGSLRLSCAASGFTFSHYTLSWVRQAPGKGLEWVSVISGDGSYTYYADSVKGRFTISSDNSKNTLYLQMNSLRAEDTAVYYCARNFIKYVFANWGQGTLVTVSSASTKGPSVFPLAPCSRSTSESTAALGCLVKDYFPEPVTVSWNSGALTSGVHTFPAVLQSSGLYSLSSVVTVPSSNFGTQTYTCNVDHKPSNTKVDKTVERKCCVECPPCPAPPVAGPSVFLFPPKPKDTLMISRTPEVTCVVVDVSHEDPEVQFNWYVDGVEVHNAKTKPREEQFNSTFRVVSVLTVVHQDWLNGKEYKCKVSNKGLPAPIEKTISKTKGQPREPQVYTLPPSREEMTKNQVSLTCLVKGFYPSDIAVEWESNGQPENNYKTTPPMLDSDGSFFLYSKLTVDKSRWQQGNVFSCSVMHEALHNHYTQKSLSLSPGK
light: DIELTQPPSVSVAPGQTARISCSGDNIGSFYVHWYQQKPGQAPVLVIYDKSNRPSGIPERFSGSNSGNTATLTISGTQAEDEADYYCQSYANTLSLVFGGGTKLTVLGQPKAAPSVTLFPPSSEELQANKATLVCLISDFYPGAVTVAWKADSSPVKAGVETTTPSKQSNNKYAASSYLSLTPEQWKSHRSYSCQVTHEGSTVEKTVAPTECS
inhibition of tumor growth (tumor volume) ([1]; OMP-18R5 25 mg/kg administered 3 days prior to paclitaxel 20 mg/kg, every three weeks i.p., versus same day, paclitaxel first, paclitaxel alone, FIG. 2): significantly better at inhibiting tumor growth of the UM-PE13 breast tumor cells than any of the other dosing regimens | tumor regression in individual mice ([1]; Wnt pathway inhibitor (OMP-18R5) administered before the taxane (paclitaxel)): tumors in several of the individual mice regressed to undetectable levels | adverse events leading to discontinuation [2]: fragility fractures observed | inhibition of tumor growth (tumor volume) [3]: inhibited tumor growth of the OMP-C28 colon tumor cells to a greater extent than either the Wnt pathway inhibitors or nab-paclitaxel alone
